# Target: B/Victoria/504/2000 HA ectodomain (residues 1–530), soluble, His-tagged (influenza B virus B/Victoria/504/2000)
# Assay: negative stain EM reconstruction
substance,measurement,value
"B/Victoria/504/2000 HA ectodomain (residues 1–530), soluble, His-tagged (domain or fragment)",stoichiometry N,3

# Reference: article PMC5253702
